Changes are numbered by the printed parent chain.
B1: Antibody 130 (antibody, human IgG1, kappa)
heavy: not shown
light: DIQMTQSPSSVSASPGDRVTITCRASQSISINLHWYQQKPGKAPKLLIYFASQSISGVPSRFSGSGSGTDFSLTINSLQPEDFATYYCQQSNSFPLTFGGGTKVEIKRTVAAPSVFIFPPSDEQLKSGTASVVCLLNNFYPREAKVQWKVDNALQSGNSQESVTEQDSKDSTYSLSSTLTLSKADYEKHKVYACEVTHQGLSSPVTKSFNRGEC
B2: Antibody 140 (antibody, human IgG1, kappa)
heavy: not shown
light: B1 light with S14T, P15V, T85R
B3: Antibody 131 (antibody, human IgG1, kappa, V domains shown)
VH: EVQLVQSGAEVKKPGATVKISCKASGYTFSDYYLHWVRQAPEKGLEWMGWIDPENGDTEYAPKFQGRVTITADTSTDTGYLELSSLRSEDTAVYYCAANKELRYFDVWGQGTLVTVSS
VL: DIQMTQSPSSVSASVGDRVTITCRASQSISINLHWYQQKSGKAPKLLIYFASQSISGVPSRFSGSGSGTDFSLTINSLQPEDFATYYCQQSNSFPLTFGGGTKVEIKR
B4: Antibody 137 (antibody, human IgG1, kappa, V domains shown)
VH: B3 VH
VL: B3 VL with S40P, Y87F
B5: Antibody 141 (antibody, human IgG1, kappa)
heavy chain: not shown
light chain: B1 light with T85R
B6: Antibody 135 (antibody, human IgG1, kappa, V domains shown)
VH: B3 VH
VL: B3 VL with S40P, V58I
B7: Antibody 132 (antibody, human IgG1, kappa, V domains shown)
VH: B3 VH
VL: B3 VL with S40P, G41H
B8: Antibody 133 (antibody, human IgG1, kappa, V domains shown)
VH: B3 VH
VL: B3 VL with S40P, K42E
B9: Antibody 134 (antibody, human IgG1, kappa, V domains shown)
VH: B3 VH
VL: B3 VL with S40P, A43S

Columns and labels:
human IL-12 = target: T1, human IL-12 (human, UniProt P29460 23-328; P29459 23-219); assay: ELISA, coated IL-12
T1 construct: Recombinant (Peprotech); FLAG-tagged IL-12 in the flow cytometry assays, biotinylated in the IL-12Rβ2 assay; also called hIL-12
T1 sequence 1: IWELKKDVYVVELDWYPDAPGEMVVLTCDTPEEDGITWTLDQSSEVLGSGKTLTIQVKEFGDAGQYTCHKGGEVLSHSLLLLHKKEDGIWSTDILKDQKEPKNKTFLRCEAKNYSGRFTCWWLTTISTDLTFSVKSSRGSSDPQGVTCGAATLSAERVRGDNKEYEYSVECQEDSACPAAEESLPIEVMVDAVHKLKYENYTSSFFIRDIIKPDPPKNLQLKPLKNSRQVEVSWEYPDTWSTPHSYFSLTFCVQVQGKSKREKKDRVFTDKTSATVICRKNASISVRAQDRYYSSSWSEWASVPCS
T1 sequence 2: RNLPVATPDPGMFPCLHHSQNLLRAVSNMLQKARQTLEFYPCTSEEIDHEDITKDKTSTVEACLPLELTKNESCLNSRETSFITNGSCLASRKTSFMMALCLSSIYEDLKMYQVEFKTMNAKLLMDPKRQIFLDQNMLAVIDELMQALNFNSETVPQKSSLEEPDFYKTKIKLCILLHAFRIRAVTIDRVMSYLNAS
Method in brief: (§1)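 Cytokine at 1 μg/mL in carbonate buffer pH 9.6 was coated overnight at 4° C onto Maxisorp plates and blocked with 1% BSA in PBS for 1 hour at 25° C. Antibody titrations were bound for 1 hour at 25° C, then detected with goat anti-human IgG or anti-murine immunoglobulin HRP (1:2000, 1 hour). TMB was developed and stopped with 1M HCl. The binding result is absorbance at 450 nm (reference 620 nm).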

human IL-23 = target: T2, human IL-23 (human, UniProt P29460 23-328; Q9NPF7 20-189); assay: ELISA, coated IL-23
T2 construct: Recombinant (Ebioscience); HIS-tagged in flow cytometry, biotinylated in some assays; also called hIL-23; rhIL-23
T2 sequence 1: T1 sequence 1
T2 sequence 2: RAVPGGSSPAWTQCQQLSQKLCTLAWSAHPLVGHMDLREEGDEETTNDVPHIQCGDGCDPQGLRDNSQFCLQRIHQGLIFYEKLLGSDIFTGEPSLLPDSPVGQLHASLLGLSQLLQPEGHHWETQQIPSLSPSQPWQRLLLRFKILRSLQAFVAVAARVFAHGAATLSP
Method in brief: as §1

Binder	binding result (human IL-12)	binding result (human IL-23)
B1	binds	binds
B2	binds	binds
B3	binds	binds
B4	binds	binds
B5	binds	binds
B6	binds	binds
B7	binds	binds
B8	binds	binds
B9	binds	binds
